Reference: publication PMC9452301 (Nature, 2022)

Target: protein phosphatase 1 catalytic subunit, γ-isoform (PPP1CCγ) (human, UniProt P36873 1-323)
Assay: cell-based or functional assay

Sequence of protein phosphatase 1 catalytic subunit, γ-isoform (PPP1CCγ) (P36873 whole entry, canonical isoform): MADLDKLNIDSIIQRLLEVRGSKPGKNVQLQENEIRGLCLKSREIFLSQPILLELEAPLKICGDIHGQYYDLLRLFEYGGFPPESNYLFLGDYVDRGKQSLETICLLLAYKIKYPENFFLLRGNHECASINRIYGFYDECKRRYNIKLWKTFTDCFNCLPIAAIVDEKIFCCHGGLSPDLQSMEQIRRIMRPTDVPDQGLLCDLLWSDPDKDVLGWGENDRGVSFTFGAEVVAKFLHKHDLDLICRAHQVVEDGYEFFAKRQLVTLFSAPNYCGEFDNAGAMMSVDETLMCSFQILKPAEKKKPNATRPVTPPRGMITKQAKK

B1: N-terminally truncated SHOC2 (SHOC2-ΔN; residues 91–582) (domain or fragment)
chain: IKELNKCREENSMRLDLSKRSIHILPSSIKELTQLTELYLYSNKLQSLPAEVGCLVNLMTLALSENSLTSLPDSLDNLKKLRMLDLRHNKLREIPSVVYRLDSLTTLYLRFNRITTVEKDIKNLSKLSMLSIRENKIKQLPAEIGELCNLITLDVAHNQLEHLPKEIGNCTQITNLDLQHNELLDLPDTIGNLSSLSRLGLRYNRLSAIPRSLAKCSALEELNLENNNISTLPESLLSSLVKLNSLTLARNCFQLYPVGGPSQFSTIYSLNMEHNRINKIPFGIFSRAKVLSKLNMKDNQLTSLPLDFGTWTSMVELNLATNQLTKIPEDVSGLVSLEVLILSNNLLKKLPHGLGNLRKLRELDLEENKLESLPNEIAYLKDLQKLVLTNNQLTTLPRGIGHLTNLTHLGLGENLLTHLPEEIGTLENLEELYLNDNPNLHSLPFELALCSKLSIMSIENCPLSHLPPQIVAGGPSFIIQFLKMQGPYRAMV
In the case of B1, the “Kd^app of SHOC2 from peptide dephosphorylation (25 nM PP1C, 1 µM MRAS(GCP))” value is reported as ~40 fold weaker than full-length SHOC2.
